Assay results reported in patent publication US12466859B2, “Desmoglein 2 (DSG2) binding proteins and uses therefor” (UNIVERSITY OF WASHINGTON THROUGH ITS CENTER FOR …, priority 2013, dated 2025).
Residue numbers refer to the chain shown, from its start. Names may count otherwise.

Experiments:
[1] = tested on: Ad3-GFP virus; experiment: Competition of Ad3-GFP virus infection on HeLa cells; assay type: cell-based, adenovirus serotype 3; conditions: pre-incubation with knob; GFP expression
Method: FIG. 3A-3D. Competition of Ad3 virus by dimerized Ad3 knob mutants. FIG. 3A) Relative attachment of ^3H-labeled Ad3 virus in the presence of dimeric fiber knob mutants. 1.8×10^5 HeLa cells were incubated with Ad3 knob mutants at a concentration of 2.5 and 100 μg/ml on ice for 1 hour. Then 400 pfu/cell of ^3H-Ad3 virus was added on ice for another hour. Unbound virus particles were washed away. Attachment of virus particles incubated with PBS was taken as 100%. N=3. FIG. 3B1-3B2) Competition of Ad3-GFP virus infection on HeLa cells. 1.5×10^5 HeLa cells were seeded into 24 well plates. Cells were incubated with the Ad3 knob mutants at increasing concentrations for one hour at room temperature. 100 pfu/cell of Ad3-GFP virus were then added and GFP expression was analyzed 18 hours later by flow cytometry. FIG. 3B1) percentage of GFP positive cells. FIG. 3B2) mean fluorescence intensity. N=3. The standard deviation was less than 10%. FIG. 3C) Relative attachment of ^3H-labeled Ad3 virus in the presence of dimeric fiber knob mutants with multiple mutations. The study was performed as described in […]) The standard deviation was less than 10%. FIG. 3D) Competition of Ad3-GFP virus infection on HeLa cells. The study was performed as described in FIG. 3C) The standard deviation was less than 10%.
FIG. 9A1-9C. Analysis of dimeric Ad3 fiber knob mutants with increased affinity to DSG2. FIG. 9A1-9A2) Competition of Ad3-GFP virus infection on HeLa cells with dimeric affinity-enhanced mutant Y250F and JO-1 (dimeric wt Ad3 fiber knob). The experimental setting is as described for FIG. 3C. FIG. 9A1) percentage of GFP positive cells. FIG. 9A2) mean fluorescence intensity. N=3. The standard deviation was less than 10%. […] 100 pfu/cell of Ad3GFP virus were then added and GFP expression was analyzed 18 hours later. […]
Functional validation. […] Transduction was measured based on GFP expression (FIG. 3B). […] Dimeric Ad3 knob mutants with combined mutations were also analyzed for their ability to compete with Ad3 virus for attachment (FIG. 3C) and infection (FIG. 3D).

[2] = biological target: T1, DSG2 (Homo sapiens, UniProt Q14126); experiment: Surface plasmon resonance of Ad3 fiber knobs on immobilized DSG2; assay type: binding; conditions: affinity to DSG2
T1 construct: Western blot using soluble recombinant DSG2 as a probe; purchased Leinco Technologies, Inc. (St. Louis, MO)
T1 sequence (Q14126 50-609 limits assumed): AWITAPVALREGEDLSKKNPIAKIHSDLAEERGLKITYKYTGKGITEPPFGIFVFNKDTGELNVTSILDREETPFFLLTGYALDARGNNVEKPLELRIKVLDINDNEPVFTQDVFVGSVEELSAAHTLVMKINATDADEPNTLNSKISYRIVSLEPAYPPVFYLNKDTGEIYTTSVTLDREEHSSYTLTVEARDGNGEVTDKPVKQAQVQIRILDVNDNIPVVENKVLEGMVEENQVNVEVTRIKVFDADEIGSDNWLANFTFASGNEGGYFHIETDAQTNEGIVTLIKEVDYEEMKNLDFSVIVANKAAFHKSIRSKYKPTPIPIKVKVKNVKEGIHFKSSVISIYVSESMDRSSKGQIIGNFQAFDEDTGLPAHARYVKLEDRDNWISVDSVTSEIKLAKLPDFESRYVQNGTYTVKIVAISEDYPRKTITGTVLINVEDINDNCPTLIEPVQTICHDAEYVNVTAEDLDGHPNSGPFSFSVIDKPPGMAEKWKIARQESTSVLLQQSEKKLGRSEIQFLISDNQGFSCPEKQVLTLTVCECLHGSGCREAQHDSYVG
Method: FIG. 7A-7B. SPR analysis of non-dimerized Ad3 fiber knob interactions with DSG2. FIG. 7A) DSG2 was immobilized on sensorchips, and background was automatically subtracted from the control flow cell. The Ad3 fiber knobs (w/o dimerization domain: “noDD”) were injected for 3 minutes at 2.5 μg/ml followed by a 2.5 minutes dissociation period. FIG. 7B) Summary of SPR data. […] The extracted data are resumed in the table. Wt=Ad3 fiber knob without mutations FIG. 8A-8G. Electron microscopy and 3D structure of Ad3 fiber knob mutant JO-2.
Surface Plasmon Resonance: Acquisitions were done on a BIAcore 3000 instrument. HBS-N (GE-Healthcare, Pittsburgh, PA) supplemented with 2 mM CaCl2) was used as running buffer in all experiments at a flow rate of 5 [l/min. Immobilization on CM4 sensorchip (BIAcore) was performed using DSG2 at 10 μg/ml diluted in 10 mM Acetate buffer pH 4.5 injected for 10 minutes on ethyl(dimethylaminopropyl) carbodiimide (EDC)/N-Hydroxysuccinimide (NHS) activated flow-cell. A control flow-cell was activated by (EDC/NHS) and inactivated by ethanolamine. Different concentrations of Ad3 fiber knob proteins were injected for 3 minutes association followed by 2.5 minutes dissociation time, and the signal was automatically subtracted from the background of the ethanolamine deactivated EDC-NHS flow cell. Kinetic and affinity constants were calculated using the BIAeval software.

B1: D261N (protein)
chain: MKVSALKEKVSALKEKVSALKEKVSALKEKVSALKEGSGGGSGGGSGGGSNSIALKNNTLWTGPKPEANCIIEYGKQNPDSKLTLILVKNGGIVNGYVTLMGASDYVNTLFKNKNVSINVELYFDATGHILPDSSSLKTDLELKYKQTADFSARGFMPSTTAYPFVLPNAGTHNENYIFGQCYYKASNGALFPLEVTVMLNKRLPDSRTSYVMTFLWSLNAGLAPETTQATLITSPFTFSYIREDD
- Inhibition of Ad3-GFP infection of HeLa cells, in words [1]: least reduced

B2: JO-4 (protein)
chain: B1 chain with Y177F, N188D
- Kd [2]: 11.4 nM
